Here are results for 1 molecule from patent US20170073406A1.

Test [1] deals with biotinylated His-tagged TGF-β1 LAP C4S (Homo sapiens (Human)) (UniProt P01137). In words: ELISA, neutravidin plate with biotinylated His-tagged TGF-β1 LAP C4S; antibody dilution 1:10,000; fluorescent secondary detection. Background: ELISA stands for enzyme-linked immunosorbent assay.
Test [2] has the same target. The experiment in a line: ELISA, neutravidin plate with biotinylated His-tagged TGF-β1 LAP C4S; antibody dilution 1:1,000; fluorescent secondary detection.
The target is the same in test [3]. In words: ELISA, neutravidin plate with biotinylated His-tagged TGF-β1 LAP C4S; antibody dilution 1:5,000; fluorescent secondary detection.

biotinylated His-tagged TGF-β1 LAP C4S (Homo sapiens (Human)), sequence (P01137 other isoform, or with tags, fused parts or gaps limits assumed): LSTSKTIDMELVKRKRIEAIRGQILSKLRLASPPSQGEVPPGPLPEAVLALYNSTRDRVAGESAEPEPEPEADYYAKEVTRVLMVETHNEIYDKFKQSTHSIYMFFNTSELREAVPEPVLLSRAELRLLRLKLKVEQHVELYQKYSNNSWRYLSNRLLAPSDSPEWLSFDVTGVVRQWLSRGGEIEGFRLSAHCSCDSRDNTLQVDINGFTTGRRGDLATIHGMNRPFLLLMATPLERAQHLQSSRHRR

B1: 1D11 antibody (mouse monoclonal anti-TGF-β1, 2 and 3 antibody, R&D Systems, Minneapolis, Minn.) (antibody, from another filing, V domains shown)
VH: QVQLQQSGPELVRPGASVKLSCKASGYIFITYWMNWVKQRPGQGLEWIGQIFPASGSTNYNEMFEGKATLTVDTSSSTAYMQLSSLTSEDSAVYYCARGDGNYALDAMDYWGQGTSVTVSS
VL: DIVLTQSPASLAVSLGQRATISCRASESVDSYGNSFMHWYQQKSGQPPKLLIYLASNLESGVPARFSGSGSRTDFTLTIDPVEADDAATYYCQQNNEDPLTFGAGTKLEIK
Turning to B1, the figures for the RFU in test [1], in test [2] and in test [3] were 198 RFU, 218 RFU and 214 RFU, respectively.
